These binders were tested against c-MET (UniProt P08581 25-932) (assay: ELISA on c-MET coated plates).
Chain of c-MET (P08581 25-932 limits assumed): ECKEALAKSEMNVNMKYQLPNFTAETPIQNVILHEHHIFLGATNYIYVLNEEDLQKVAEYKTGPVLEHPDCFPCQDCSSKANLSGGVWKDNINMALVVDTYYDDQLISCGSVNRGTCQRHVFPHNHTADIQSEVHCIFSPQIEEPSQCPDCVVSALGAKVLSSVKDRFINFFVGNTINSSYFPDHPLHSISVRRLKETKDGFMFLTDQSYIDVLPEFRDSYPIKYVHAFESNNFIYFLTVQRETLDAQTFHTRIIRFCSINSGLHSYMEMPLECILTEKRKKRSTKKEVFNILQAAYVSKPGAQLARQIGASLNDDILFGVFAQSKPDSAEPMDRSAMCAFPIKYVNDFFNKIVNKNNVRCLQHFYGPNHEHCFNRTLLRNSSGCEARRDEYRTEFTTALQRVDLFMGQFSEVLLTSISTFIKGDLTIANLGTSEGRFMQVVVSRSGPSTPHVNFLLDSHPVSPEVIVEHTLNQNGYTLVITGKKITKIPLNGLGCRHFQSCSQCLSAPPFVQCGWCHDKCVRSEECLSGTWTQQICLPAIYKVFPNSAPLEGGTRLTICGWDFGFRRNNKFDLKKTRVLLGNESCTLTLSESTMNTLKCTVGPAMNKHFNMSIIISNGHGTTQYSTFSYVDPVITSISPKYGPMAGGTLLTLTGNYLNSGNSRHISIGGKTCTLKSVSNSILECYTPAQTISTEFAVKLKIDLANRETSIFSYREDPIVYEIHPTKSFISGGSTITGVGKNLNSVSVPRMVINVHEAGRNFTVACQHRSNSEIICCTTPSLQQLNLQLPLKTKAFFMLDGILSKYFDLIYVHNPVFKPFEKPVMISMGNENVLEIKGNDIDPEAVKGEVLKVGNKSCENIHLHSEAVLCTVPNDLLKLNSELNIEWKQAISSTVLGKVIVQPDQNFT

Row | Binder | binding result
1 | PB27538p43 (bispecific antibody, also called PB27538p44; PB27538p33) heavy (part 1 of 2) 1: EVQLVETGGGVVQPGRSLRLSCAASGFTFSQYAMHWVRQAPGKGLEWVAIISHDERNKYYVDSGMGRFTISRDNSKNTLFLQMNSLRSEDTAVYYCARDMRKGGYYYGFDVWGQGTTVTVSSASTKGPSVFPLAPSSKSTSGGTAALGCLVKDYFPEPVTVSWNSGALTSGVHTFPAVLQSSGLYSLSSVVTVPSSSLGTQTYICNVNHKPSNTKVDK heavy (part 2 of 2) 1: not shown heavy (part 1 of 2) 2: not shown heavy (part 2 of 2) 2: not shown light: not shown | binds
2 | PB27538p49 (bispecific antibody, also called PB27538p39; MG1516C3209 x MG3462C3217) heavy (part 1 of 2) 1: EVQLVETGGGVVQPGRSLRLSCAASGFTFSQYAMHWVRQAPGKGLEWVAIISHDERNKYYVDSGMGRFTISRDNSKNTLFLQMNSLRSEDTAVYYCARDMRKGGYYYGFDVWGQGTTVTVSSASTKGPSVFPLAPSSKSTSGGTAALGCLVKDYFPEPVTVSWNSGALTSGVHTFPAVLQSSGLYSLSSVVTVPSSSLGTQTYICNVNHKPSNTKVDK heavy (part 2 of 2) 1: not shown heavy (part 1 of 2) 2: not shown heavy (part 2 of 2) 2: not shown light: not shown | binds
3 | PB27538p50 (bispecific antibody, also called PB27538p40; MG1516C3209 x MG3462C3218) heavy (part 1 of 2) 1: EVQLVETGGGVVQPGRSLRLSCAASGFTFSQYAMHWVRQAPGKGLEWVAIISHDERNKYYVDSGMGRFTISRDNSKNTLFLQMNSLRSEDTAVYYCARDMRKGGYYYGFDVWGQGTTVTVSSASTKGPSVFPLAPSSKSTSGGTAALGCLVKDYFPEPVTVSWNSGALTSGVHTFPAVLQSSGLYSLSSVVTVPSSSLGTQTYICNVNHKPSNTKVDK heavy (part 2 of 2) 1: not shown heavy (part 1 of 2) 2: not shown heavy (part 2 of 2) 2: not shown light: not shown | binds
4 | PB27538p48 (bispecific antibody, also called PB27538p38; MG1516C3209 x MG3462C3216) heavy (part 1 of 2) 1: EVQLVETGGGVVQPGRSLRLSCAASGFTFSQYAMHWVRQAPGKGLEWVAIISHDERNKYYVDSGMGRFTISRDNSKNTLFLQMNSLRSEDTAVYYCARDMRKGGYYYGFDVWGQGTTVTVSSASTKGPSVFPLAPSSKSTSGGTAALGCLVKDYFPEPVTVSWNSGALTSGVHTFPAVLQSSGLYSLSSVVTVPSSSLGTQTYICNVNHKPSNTKVDK heavy (part 2 of 2) 1: not shown heavy (part 1 of 2) 2: not shown heavy (part 2 of 2) 2: not shown light: not shown | binds
5 | PB27538p51 (bispecific antibody, also called PB27538p41; MG1516C3209 x MG3462C3219) heavy (part 1 of 2) 1: EVQLVETGGGVVQPGRSLRLSCAASGFTFSQYAMHWVRQAPGKGLEWVAIISHDERNKYYVDSGMGRFTISRDNSKNTLFLQMNSLRSEDTAVYYCARDMRKGGYYYGFDVWGQGTTVTVSSASTKGPSVFPLAPSSKSTSGGTAALGCLVKDYFPEPVTVSWNSGALTSGVHTFPAVLQSSGLYSLSSVVTVPSSSLGTQTYICNVNHKPSNTKVDK heavy (part 2 of 2) 1: not shown heavy (part 1 of 2) 2: not shown heavy (part 2 of 2) 2: not shown light: not shown | binds
6 | PB27538p46 (bispecific antibody, also called PB27538p36; MG1516C3211 x MG3462C3215) heavy (part 1 of 2) 1: EVQLVETGGGVVQPGRSLRLSCAASGFTFSQYAMHWVRQAPGKGLEWVAIISHDERNKYYVDSGMGRFTISRDNSKNTLFLQMNSLRSEDTAVYYCARDMRKGGYYYGFDVWGQGTTVTVSSASTKGPSVFPLAPSSKSTSGGTAALGCLVKDYFPEPVTVSWNSGALTSGVHTFPAVLQSSGLYSLSSVVTVPSSSLGTQTYICNVNHKPSNTKVDK heavy (part 2 of 2) 1: not shown heavy (part 1 of 2) 2: not shown heavy (part 2 of 2) 2: not shown light: not shown | binds
7 | PB27538p45 (bispecific antibody, also called PB27538p35; MG1516C3210 x MG3462C3215) heavy (part 1 of 2) 1: EVQLVETGGGVVQPGRSLRLSCAASGFTFSQYAMHWVRQAPGKGLEWVAIISHDERNKYYVDSGMGRFTISRDNSKNTLFLQMNSLRSEDTAVYYCARDMRKGGYYYGFDVWGQGTTVTVSSASTKGPSVFPLAPSSKSTSGGTAALGCLVKDYFPEPVTVSWNSGALTSGVHTFPAVLQSSGLYSLSSVVTVPSSSLGTQTYICNVNHKPSNTKVDK heavy (part 2 of 2) 1: not shown heavy (part 1 of 2) 2: not shown heavy (part 2 of 2) 2: not shown light: not shown | binds
8 | PB27538p52 (bispecific antibody, also called PB27538p42; MG1516C3209 x MG3462C3221) heavy (part 1 of 2) 1: EVQLVETGGGVVQPGRSLRLSCAASGFTFSQYAMHWVRQAPGKGLEWVAIISHDERNKYYVDSGMGRFTISRDNSKNTLFLQMNSLRSEDTAVYYCARDMRKGGYYYGFDVWGQGTTVTVSSASTKGPSVFPLAPSSKSTSGGTAALGCLVKDYFPEPVTVSWNSGALTSGVHTFPAVLQSSGLYSLSSVVTVPSSSLGTQTYICNVNHKPSNTKVDK heavy (part 2 of 2) 1: not shown heavy (part 1 of 2) 2: not shown heavy (part 2 of 2) 2: not shown light: not shown | binds

Reference: patent US20210054049A1 (MERUS N V, published 2021)
